Publication PMC3518660 (Journal of immunology (Baltimore, Md. : 1950), 2012)
Where two headings read alike, the source gives them in different places.

Assays:
[1] = molecular target: T1, recombinant soluble integrin αvβ3 (UniProt P06756 31-987; P05106 27-718); assay: SPR
[2] = molecular target: T1, recombinant soluble integrin αvβ3; assay: SPR; remark: listed apart in the source
[3] = molecular target: T1, recombinant soluble integrin αvβ3; assay: ELISA

T1 sequence (P06756 31-987, chain 1 of 2): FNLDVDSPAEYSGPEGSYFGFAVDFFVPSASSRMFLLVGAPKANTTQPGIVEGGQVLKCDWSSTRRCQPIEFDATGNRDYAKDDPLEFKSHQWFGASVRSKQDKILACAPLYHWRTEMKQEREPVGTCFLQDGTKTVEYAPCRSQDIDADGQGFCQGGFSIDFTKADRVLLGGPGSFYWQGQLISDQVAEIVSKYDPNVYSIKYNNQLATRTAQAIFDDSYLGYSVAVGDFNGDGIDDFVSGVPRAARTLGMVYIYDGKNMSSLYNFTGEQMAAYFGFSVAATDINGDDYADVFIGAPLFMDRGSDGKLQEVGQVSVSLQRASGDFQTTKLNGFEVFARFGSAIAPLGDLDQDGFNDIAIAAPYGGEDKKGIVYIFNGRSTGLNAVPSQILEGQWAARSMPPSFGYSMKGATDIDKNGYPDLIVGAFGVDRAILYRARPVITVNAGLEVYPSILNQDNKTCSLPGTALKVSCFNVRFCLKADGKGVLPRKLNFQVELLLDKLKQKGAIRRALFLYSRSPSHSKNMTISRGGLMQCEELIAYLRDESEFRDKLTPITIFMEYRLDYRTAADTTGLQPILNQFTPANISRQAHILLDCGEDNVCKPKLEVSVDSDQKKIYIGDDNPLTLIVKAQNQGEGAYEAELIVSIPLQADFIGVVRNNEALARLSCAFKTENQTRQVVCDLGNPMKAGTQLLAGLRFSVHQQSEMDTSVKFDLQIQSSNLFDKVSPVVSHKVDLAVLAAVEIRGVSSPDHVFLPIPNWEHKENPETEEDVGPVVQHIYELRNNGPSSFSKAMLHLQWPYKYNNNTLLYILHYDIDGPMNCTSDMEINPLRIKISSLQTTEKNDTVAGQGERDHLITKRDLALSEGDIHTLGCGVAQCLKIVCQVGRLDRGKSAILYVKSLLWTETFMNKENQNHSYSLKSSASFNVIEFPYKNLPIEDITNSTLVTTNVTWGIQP
T1 sequence (P05106 27-718, chain 2 of 2): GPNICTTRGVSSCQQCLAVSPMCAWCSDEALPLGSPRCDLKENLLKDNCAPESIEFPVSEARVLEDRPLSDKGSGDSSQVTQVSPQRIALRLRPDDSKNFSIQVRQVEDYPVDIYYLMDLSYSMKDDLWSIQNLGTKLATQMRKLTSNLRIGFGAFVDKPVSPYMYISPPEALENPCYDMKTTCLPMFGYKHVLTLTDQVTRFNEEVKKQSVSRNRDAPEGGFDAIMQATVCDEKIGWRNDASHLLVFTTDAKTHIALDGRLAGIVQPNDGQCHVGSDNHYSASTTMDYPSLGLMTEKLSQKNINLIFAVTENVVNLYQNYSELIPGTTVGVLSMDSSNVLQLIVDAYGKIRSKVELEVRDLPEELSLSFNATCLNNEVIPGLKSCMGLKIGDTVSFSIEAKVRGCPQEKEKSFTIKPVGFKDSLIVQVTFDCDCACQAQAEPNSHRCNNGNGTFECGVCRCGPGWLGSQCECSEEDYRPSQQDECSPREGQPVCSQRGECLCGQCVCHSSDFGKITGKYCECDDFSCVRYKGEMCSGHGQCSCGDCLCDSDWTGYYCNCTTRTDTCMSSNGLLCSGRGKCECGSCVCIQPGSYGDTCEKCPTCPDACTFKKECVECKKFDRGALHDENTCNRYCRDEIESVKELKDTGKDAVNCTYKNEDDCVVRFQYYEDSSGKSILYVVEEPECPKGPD

Kd [1] [nM]	Kd [2] [nM]	binding result [3]	Binder
6.9	11	–	chemokine domain of fractalkine (FKN-CD), wild type, 6His-tagged (domain or fragment, human) QHHGVTKCNITCSKMTSKIPVALLIHYQQNQASCGKRAIILETRQHRLFCADPKEQWVKDAMQHLDRQAAALTRNG
–	–	binds	FKN-CD Arg47 to Ala mutant (R47A) (domain or fragment, human) QHHGVTKCNITCSKMTSKIPVALLIHYQQNQASCGKRAIILETRQHALFCADPKEQWVKDAMQHLDRQAAALTRNG
–	–	binds	FKN-CD Lys54/Lys59 to Ala mutant (K54A/K59A) (domain or fragment, human) QHHGVTKCNITCSKMTSKIPVALLIHYQQNQASCGKRAIILETRQHRLFCADPAEQWVADAMQHLDRQAAALTRNG
–	–	binds	FKN-CD Lys54 to Ala mutant (K54A) (domain or fragment, human) QHHGVTKCNITCSKMTSKIPVALLIHYQQNQASCGKRAIILETRQHRLFCADPAEQWVKDAMQHLDRQAAALTRNG
